T1: BDNF (R&D Systems, 248-BDB-050/CF) (UniProt P23560 129-247)
T1 sequence (looked up): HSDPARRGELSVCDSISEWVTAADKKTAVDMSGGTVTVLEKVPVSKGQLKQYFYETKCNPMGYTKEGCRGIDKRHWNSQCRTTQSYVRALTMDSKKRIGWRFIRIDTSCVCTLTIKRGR

T2: NT-3 (R&D Systems, 267-N3-025/CF) (UniProt P20783 139-257)
T2 sequence (looked up): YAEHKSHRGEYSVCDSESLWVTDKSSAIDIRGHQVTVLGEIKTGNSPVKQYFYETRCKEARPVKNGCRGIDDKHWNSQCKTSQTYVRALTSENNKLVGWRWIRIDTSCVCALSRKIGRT

B1: rat antibody 2166 (antibody, V domains shown)
VH: QVQLKESGPGLVQPSQTLSLTCTVSGLSLTSNSVSWIRQPPGKGLEWMGVIWSNGGTDYNSAIESRLSINRDTSKSQVFLKMNSLQPEDTAMYFCASIYYYDADYLHWYFDFWGPGTMVTVSS
VL: DIQMTQSPASLSASLGETVSIECLASEGISNSLAWYQLKPGKSPQFLIYATSSLQDGVPSRFSGSGSGTQYSLKISGMQPEDEGVYYCQQGYKFPLTFGSGTKLKIK
B2: canine 2166 chimeric antibody (antibody, V domains shown)
VH: B1 VH
VL: DIQMTQSPASLSASLGETVSIECLASEGISNSLAWYQLKPGKSPQFLIYATSSLQDGVPSRFSGSGSGTQYSLKISGMQPEDEGVYYCQQGYKFPLTFGSGTKLKIKR

Columns and labels:
[1] = molecular target: T3, canine NGF tagged at the C-terminus with the Flag tag (canine, UniProt A0A8I3PYI3 122-241); test: SPR, antibody amine-coupled, NGF analyte
T3 construct: Baculovirus expression; also called feline NGF (processed form identical)

[2] = molecular target: canine NGF with a strep-tag at the C-terminus (canine, UniProt A0A8I3PYI3 122-241); test: cell-based or functional assay
[3] = molecular target: T3, canine NGF tagged at the C-terminus …; test: SPR; antibody amine-coupled to HC30M sensor chip, canine NGF-Flag as analyte
[4] = molecular target: T1, BDNF (R&D Systems, 248-BDB-050/CF); test: multiplexed bead assay, flow cytometry
[5] = molecular target: T4, human NGF (R&D Systems, 256-GF-100/CF) (human, UniProt P01138 122-241); test: multiplexed bead assay, flow cytometry
T4 construct: Conjugated to beads or fluorescently labelled; also called human NGF antigen
T4 sequence (P01138 122-241 limits assumed): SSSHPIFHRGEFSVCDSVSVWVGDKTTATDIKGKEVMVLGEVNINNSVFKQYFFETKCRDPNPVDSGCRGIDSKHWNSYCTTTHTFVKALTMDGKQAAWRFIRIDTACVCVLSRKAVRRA

[6] = molecular target: T2, NT-3 (R&D Systems, 267-N3-025/CF); test: multiplexed bead assay, flow cytometry
[7] = molecular target: T3, canine NGF tagged at the C-terminus …; test: SPR Biacore T200, antibody captured on protein A, NGF analyte
[8] = molecular target: T3, canine NGF tagged at the C-terminus …; test: SPR Biacore T200, antibody captured on protein A, NGF analyte; fitted KD, one-to-one model
canine TrkA-Fc = molecular target: T5, canine TrkA-Fc (canine; human, UniProt A0A8I3P078 33-423); test: SPR, receptor-Fc captured on anti-human Fc chip
T5 construct: extracellular domain; also called Trk-Fc; canine TrkA in a dimer format; not shown: human IgG1 Fc, UniProtKB P01857
T5 sequence (A0A8I3P078 entry or part of it): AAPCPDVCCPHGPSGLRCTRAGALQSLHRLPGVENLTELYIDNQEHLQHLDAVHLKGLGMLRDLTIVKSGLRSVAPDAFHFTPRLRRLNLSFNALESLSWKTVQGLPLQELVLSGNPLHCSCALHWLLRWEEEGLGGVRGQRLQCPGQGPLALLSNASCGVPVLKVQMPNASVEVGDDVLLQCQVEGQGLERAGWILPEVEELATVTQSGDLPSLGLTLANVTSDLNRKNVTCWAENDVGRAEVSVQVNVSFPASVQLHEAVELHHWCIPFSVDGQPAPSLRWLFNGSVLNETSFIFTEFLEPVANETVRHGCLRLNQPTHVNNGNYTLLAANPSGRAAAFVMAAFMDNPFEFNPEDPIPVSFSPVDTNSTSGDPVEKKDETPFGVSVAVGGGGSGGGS

| Binder | Kd [1] [nM] | koff [1] [s⁻¹] | kon [1] [M⁻¹ s⁻¹] | IC50 (read off the curve): % inhibition of canine NGF-driven TF-1 cell proliferation [2] [nM] | Kd [3] [nM] | binding result [4] | fold over background (MFI normalized over isotype control) [5] [fold] | binding result [6] | koff [7] [s⁻¹] | kon [7] [M⁻¹ s⁻¹] | Kd [8] [nM] | binding result (canine TrkA-Fc) |
| --- | --- | --- | --- | --- | --- | --- | --- | --- | --- | --- | --- | --- |
| B1 | ≤ 0.0042 | ≤ 1e-05 | 2.38e+06 | ~0.03 | 0.042 | no binding | > 59 | no binding |  |  |  |  |
| B2 |  |  |  |  |  |  |  |  | < 1e-05 | 1.2e+07 | ≤ 0.05 | no binding (tested: 12.5 nM to 100 nM) |

Source: patent publication US20250011410A1 (INVETX, published 2025)
